This data set can be described thus: yeast display, Sf9 membrane polyspecificity reagent, FACS + sequencing; frameworks hold sequencing errors. The procedure, abridged: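 Polyreactivity labels are assigned by the sorting gate from which each nanobody was recovered. The gates were low and high (top ~1%), set on anti-HA fluorescence for expression and streptavidin fluorescence for reagent binding. Before sorting, galactose-induced (36–48 hours) yeast display cells were stained for 1 hour at 4 °C with 10% biotinylated, detergent-solubilized Sf9 membrane reagent.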
Take “QVQLVQSGGGLFQAGGSLRLSCAPSGSIFDPNALGWYRQAPAKERELVAAISSGGSRKYSDSVKGRFTISRDNAKNTVYLQMNRLIPEDTAVYYCDASPRQGMYYWGQGTQVTVSS”: the “polyreactivity (PSR sort gate)” value is “high polyreactivity”.
In the case of “QVQLVQSGGGLVKAGGSLRLRCAASGFTFVKYAMGCYRQAPGKERELIAVISRRGGSTYYADSVKGRFTISRDNAKNTVYLQMNSLKPEDSAVYYCAGVYYLYSAWRYDYWGLGTQVTVSS”, the “polyreactivity (PSR sort gate)” value is on record as “high polyreactivity”.
For “QVQLVQSGGGLVQAGGRLSLSCAASGRTIDTYAMGWYRQAPGKERELVAAITRRTYYADSVKGRFTISRDNAKNSVYLQMNSLKPEDTAVDYCAVRFLRKWTSSRHYGYWGQGTQVTLSS”, the “polyreactivity (PSR sort gate)” value was “high polyreactivity”.
Regarding “QVQLVQSGGGLVQAGGSHRLSCAASGFIFPVYAMGWYRQPPGKERELFASMTTGGSTNYADSVKGRFTITRDNAKNSVYLQMNSLKPEDTAVYDCNQDTPASLANQYNYGGQGTQVTVSS”, the “polyreactivity (PSR sort gate)” value is “low polyreactivity”.
With “QVQLVQSGGGLVQAGGSLRLSCAAMGWYRQAPGKERELVATITWSGGSTYYADSVKGRFTISRDNAKNTVYLQMNSLKPEDTAVYYCNARATLLSPANTILGYDYWGQGTQVTVSS” the entry was “low polyreactivity”; with “QVQLVQSGGGLVQAGGSLRLSCAASGITFWYYAMGWYRQAPGKERELVAAITGGSTYYADSVKGRFTISRDNAKNTVYLQMNSLKPEDTAVYYCNADSLFEYLDYDYWGQGTQVTVSS”, “low polyreactivity”.
Next, “QVQLVQSGGGLVQAGGSLRLSCAASGRIFRYYGMGWYRQAPGKERELVAAISWNSGSTYYADSVKGRFTISRDNAKNTVYLQMNSLKPEDTAVYYCNKVLFISGYVRNYGEYEYWGQGTQVTVSS”: “high polyreactivity”; “QVQLVQSGGGLVQAGGSLRLSCAASGRIFVNNAMGWYIQAPGKERELVAAISVSGTTTYYADSVKGRFTISRDNAKNTVYLQMNSLKPEDTAVFYCAAEGSTYQGAPGVYYWGQGTQVTVSS”: “high polyreactivity”.
On to “QVQLVQSGGGLVQAGGSLRLSCAASGRTFGTYAMGWYRQAPGKEREFVAVITNRGGRTYYADSVKGRFTISRDNAKNTVYLQMNSLKPEDTAVYYCTAVGRGWAFDYWGQGTQVTVSS”, for which the “polyreactivity (PSR sort gate)” value was “high polyreactivity”.
Next, “QVQLVQSGGGLVQAGGSLRLSCAASGRTFYYNAMGWYRQAPGKERELVAAITSTGGSTYYADSVKGRFTISRDNAKNTVYLQMNSLKPEDTAVYYCNTLGYTQTRGLDYWGQGTQVTVSS”: “low polyreactivity”; “QVQLVQSGGGLVQAGGSLRLSCAASGSIFDYNTMGWYRQAPGKERELVATISWSGDSTYYADSVKGRFTISRDNAKNTVYLQMNSLKPEDTAVYYCNADDPPGAPYYDSFDYRGDYWGQGTQVTVSS”: “low polyreactivity”; “QVQLVQSGGGLVQAGGSLRLSCAASGSTFSQYVMGWYRQARGKERELVAAINKNGGRTYYADSVKGRFTISRDNAKNTVYFQMISLKPEDTAVYYCAADVYGQDDYWGQGTQVTVSS”: “high polyreactivity”.
Next, “QVQLVQSGGGLVQAGGSLRLSCAAYGSTFVRYVKGWYRQAPGKERELVAAISRRGGSTYYADSVKGRFRISRDNAKNTVFLQMNSLKPEDTAVSYCARTVGYRTLLESDSWGQGTQVTVSS”: “high polyreactivity”; “QVQLVQSGGGLVQAGGSLRLSCSASGRIFSAYAMGWYRPAPGKERELVAAITWSGANTDYADSVKGRFTMSRDNAKYTVYLQMNSLKPEDTAVYYCNASVGRDSAYDYWGQGTQVTVSS”: “low polyreactivity”.
Next, “QVQLVQSGGVLVQAGGSLRLSCAASGFIFNTYAMGWYRPAPGKERELVAAIDGRGGTTYYADSVKGRFTISRDYAKNTVYLQMHSLKPEDTAVYYCAARYQRLGIRYGYWGQGTQVTVSS”: “high polyreactivity”.
On to “QVQLVQSGVGLDQAGGSLRLSCAASGSISSQNAMGWYRQAPGKESELVAAISWIGGSTYYADSVKGRFTISRDNAKNTVYLQMNSLKPEDTAVYYCAKDRASGFKYYYWGLGTQVTVSS”, for which the “polyreactivity (PSR sort gate)” value is given as “low polyreactivity”.
With “QVQLVQSGVGLVQAGGSLRLSCAASGSIFSYYVMGWYRQAPGKERELVAAISWSGGSTYYADSVKGRFTISRDNAKNTVYLQMNSLKPEDTAVYYCAAGTYPYYWVQGTQVTVSS” the entry was “low polyreactivity”; with “QVQLVQSRGGLVQAGGSLRLSCSASGFIFIYNVMGWYRQAPGKERDMVAAINRGGSTKYADSVKGRFTISRDNAKITVYLQMNSLKPEDSAVYYCAARYDGSRYHYDGYDYWGQGTQVTVSS”, “low polyreactivity”.
Next, “QVQLVQSVGGLVHAGGSLRLSCAASGRTYGVYAMGWYRQAPGKERELVAAITYSGGSTYYADSVKGRFTISRDNAKNTVYLQMNSLKPEDTAVYYCAAETRVGLYYVREVYYWGQGTQVTVSS”: “low polyreactivity”; “QVQLVVSGGGLVQAGGSLRISCAASGITFGRYAMGRYRPAPGKERELVAAISWSGGSTYYADSVKGRFTISRDNAKNTVFLQMNSLKPEDTAVYYCALEWYYTSYHIRFYRDNYWGQGTQVTVSS”: “high polyreactivity”; “QVQLVVSGGGLVQAGGSLRLSCAASGIIFVQYTMGWYRQAPGQERELDAAITRGGNTYYADSVKGRFTISRDNAKNTVYLQMNSLKPEATAVYYCNKAYWYANLRYRTGVKLQFYYWGQGTQVNVSS”: “high polyreactivity”.
In the case of “QVQLVVSGGGLVQAGGSLRLSCAASGITFFPYAMGWYRQAPGKERLLVASISDRGGTNYADSVKGRFTISRDNAKNTVYLQMNSLKPEDTAVYYSASDASTYAYYGGDYWGQGTQVTVSS”, the “polyreactivity (PSR sort gate)” value was “low polyreactivity”.
With “QVQLVVSGGGLVQAGGSLRLSCAASGITFYEYAMGWYRQAPGKERELVAAISSSGCTTYYADSVKGLFTISRDNAKNTVYLQLNSLKPEDTAVYYCAVGQRFAIWGPQGSYFYFESDYWGQGTQVTVSS”, the “polyreactivity (PSR sort gate)” value was “low polyreactivity”.
With “QVQLVVSGGGLVQAGGSLRLSCAASGRIFLWNAMGWYRQAPGKERDLVAAISSGGGTNYADSVKGRFTISRDNAKNSVYLQMNSLKPEDTAVYYCAARRTYRFGWGQGTQVTVSS” the entry was “high polyreactivity”; with “QVQLVVSGGGLVQAGGSLRLSCAASGSIFVPYAMGWYRQAPGKEREFVAAITRSSGSTYYADSVKGRFTISRDNAKNTVYLQMNSLKPEDTAVYYCAADFLLEFDYWGQGTQVTVSS”, “low polyreactivity”; with “QVQLVVSGGGLVQAGGSLRLSCAASGSIFYRNAMGWYRQAPGKDRELVAAISFSGGSTYYADSVKARFSISRDNAKNTVYLQMNSLKPEDTAVYYCAAEAYPSWFYVITGFGIYDYWGQGTQGTVSS”, “high polyreactivity”.
With “QVQLVVSGGGLVQAGGSLRLSWAASGIIFYEYAMGWYRQAPGTERELVAAITWSGRTYADSVKGRFTISRDNAKNTVYLQMNSLKPEDTAVYYCNAVYFGGPFFGQYNYWGQGTQVTVSS” the entry was “low polyreactivity”.
With “QVQLVVSGGGLVQEGGSLRLSCAAYGNTFFVYAMGGYRQAPGKERELDASITLSGDTTYYADSVKGRFTISRDNAKNPVYLQMNSLKPEDNAVYYCAAKDIRYDDDYWGQGTQVNVSS” the entry was “low polyreactivity”; with “QVQLVYSGGGLVQAGGSLRLSCAASGIIFGVNAMGWYRQAPGKERELVAAISSSGGSTYYADSVKGRFTISRDNAKNTVYLQMNSLKPEDTAVYYCAASYYHYAPFDYWGQGTQVTVSS”, “high polyreactivity”; with “QVQLVYSGGGLVQAGGSLRLSCAASGSTFYRYAMGWYRQAPGKERELVATITRSGGSTYYADSVKGRFTISRDNAKNTVYLQMNRLKPEDTAVYYCAVRLWFYYNYWGQGTQVTVSS”, “low polyreactivity”.
For the sequence “QVQNVDSGGGLVQAGGSLRLSCPPSGISYRGYAMGWYRQAPGKERELVAAISVRGASTYYAASVKGRFTISRDNAKYTVYLPMNSLKPEDTAVYYCGATRPSWRYNYWGQGTEVTVSS”, the “polyreactivity (PSR sort gate)” value is on record as “high polyreactivity”.
With “QVQPQESGVGLVQAGGSLRLSCAASGTIFAFQTMGWYRQAPGKERELVASITYGSSTNYADSVKGRFTISRDNAKNTVYLLMNRLKPEDTAVYYCAVPQAQYYYDYWGQGTQVTVSS” the entry was “high polyreactivity”; with “QVQPVESGGGLVQAGGSLRLSCAASGFIFSSYAMGWYRQAPGKERELVAAITSGGSTNYADSVKGRFTISRDNAKNTVYLQMNSMKPEDTAVYYCATVPGGSWFFHWWSTGGDDEYWGQGTQVTVSS”, “low polyreactivity”; with “QVQPVESGGGLVQAGGSLRLSCAASGIIFISYDMGWYRQAPGKERELVARINWDGGSTYYADSVKGRFTISRDNAKNTVYLQMNSLKPEDTAVYYCAAGFVGTNYPLQGFSYEYWGQGTQVTVSS”, “low polyreactivity”.
Next, “QVQPVESGGGLVQAGGSLRLSCDASGRIFYEYAMGRSRQAPGKERELVAISTSGGNTYYADSVKGRFTISRDNAKNTVYLQMKSLKPEDTEVYYCAKRGYRAYYWGQGTLVTVSS”: “high polyreactivity”; “QVQQLESGGGLVQAGGSLRLSSAASGTIFRISDMGSYRQAPGTEREFVAAITYGANTYYADSGKGRFTISRDNAKNTVYRQMNSLKPDDTAVYDCAVPPVKESILDYWGQGTQVTVSR”: “low polyreactivity”.
In the case of “QVQQQESGGGLVQAGGSLRLSCAASGTIFQLTVMGRYRQASGKERELVASIDYGGNTNYADSVKGRFTISRDNAKNTVYLQMNSLKPEDTAVYYCEASSDSWTTHPYWGQGTQVTVSS”, the “polyreactivity (PSR sort gate)” value was “low polyreactivity”.
Turning to “QVQQQESGGGLVQAGVSLRLSWAASGTIFQLTVMGRYRQAPGKEREVVASIDYGGNTNYADSVKGRFTISRDNAKNTVYRQMNSLKPEDTAVYYCAASSDSSTTHPYWGQGTHVTVSS”, the “polyreactivity (PSR sort gate)” value is “low polyreactivity”.
With “QVQRQESGGGLVQAGDSQRLSCAPSGNIFRFTDMGWYRQAPGQERELVAAINAGSTTYYADSVKGRFTISRDNAKNTVYLQMNSLKPEDTAVYYCAVYYLGSGTFGYWGQGAQVTVSS” the entry was “high polyreactivity”.
Consider “QVQRVDSGGGLVQAGGSLRLSCAASGFTFAVYAMGWYRQSPGKERELVAAISRSGTRTYYADSVKGRFTISRDNAKNTVYLQMNSLKPEDTAVYYCAADKYRLGYDYWGQGTQLTVSS”, for which the “polyreactivity (PSR sort gate)” value was “low polyreactivity”.
With “QVQRVDSRGGLVQAGGSLRLSCAASGRIFRPNAMGWYRQAHGKQRELVAAITSNGGRTYYADSVKGRFTISRDNAKYTVYLQMNSLKPEDTAVYYCNAAPFRSGDGYWGQGTQVTVSS” the entry was “high polyreactivity”.

For the origin of these results see the nanobody polyreactivity screen of Harvey et al. (2022).
